# Assays:
# actin [1] = target: T1, actin (UniProt P68135 1-377); assay: ITC; second site (KD2)
# actin [2] = target: T1, actin; assay: ITC; first site (KD1)
# actin [3] = target: T1, actin; assay: ITC
Kd (actin [1]),Kd (actin [2]),Kd (actin [3]),Binder
600 nM,154 nM,,TL2_(ABS2) (domain or fragment) VIKPTQYKPVPDEEPNSTDVEETLERIKNNDPKLEEVNLNNIRNIPIPTLKAYAEALKENSYVKKFSLANTHADDSAAMAIAEMLKVNEHITNVNVESNFITGKGILAIMRALQHNTVLTELRFHNQRHIMGSQVEMEIVKLLKENTTLLRLGYHFELPGPRMSMTSILTRNMDKQRQKRLQEQKQQE
130 nM,,,TL1_(ABS2) (domain or fragment) VIKPTQYKPVPDEEPNSTDVEETLERIKNNDPKLEEVNLNNIRNIPIPTLKAYAEALKENSYVKKFALANTRADDHVAFAIAIMLKANKTITSLNLDSNHITGKGILAIFRALLQNNTLTELRFHNQRHICGGKTEMEIAKLLKENTTLLKLGYHFELAGPRMTVTNLLSRNMDKQRQKRLQEQRQAQ
1700 nM,,,Lmod2_(ABS2) (domain or fragment) NGRNTESPAAIHPCGNPTVIEDALDKIKSNDPDTTEVNLNNIENITTQTLTRFAEALKDNTVVKTFSLANTHADDSAAMAIAEMLKVNEHITNVNVESNFITGKGILAIMRALQHNTVLTELRFHNQRHIMGSQVEMEIVKLLKENTTLLRLGYHFELPGPRMSMTSILTRNMDKQRQKRLQEQKQQE
,,15000 nM,Tmod1_(ABS1) (domain or fragment) MSYRRELEKYRDLDEDEILGALTEEELRTLENELDELDPDNALLPAGLRQKDQTTKAPTGPFKREELLDHLEKQAKEFKDREDLVPYTGEKRGKVWVPKQKPLDPVLESVTLEPELEEALANASDAELCDIAAILGMHTLMSNQQYYQALSSSSIMNKEGLNSVIKPTQYKPVPDEEPNSTDVEETLERIKNNDPKLEEVNLNNIRNIPIPTLKAYAEALKENSYVKKFSIVGTRSNDPVAYALAEMLKENKVLKTLNVESNFISGAGILRLVEALPYNTSLVEMKIDNQSQPLGNKVEMEIVSMLEKNATLLKFGYHFTQQGPRLRASNAMMNNNDLVRKRRLADLTGPIIPKCRSGV

# — publication PMC4571291 (2015)
